Results reported in the MegaScale stability set (Tsuboyama et al. 2023).

B1: EHEE_rd2_0196 (parent)
chain: TETRTFDSEEEAKKAQKEAEKQGRTVTITRRDDRWEVRFD

Variants of: B1
Assay: folding stability dG (cDNA display proteolysis); higher = more stable
Conditions: PBS, room temperature

Folding stability dG [kcal/mol]: each site, then its substitutions
A12: R 0.086 | P 0.214 | M 1.9 | L 1.49 | H 0.139 | Q 0.157 | E 0.203 | G 0.827 | T 1.04 | F 1.05 | S 1.06 | D 0.06 | N 0.221 | I 0.724 | K 0.241 | Y 1.08 | V 1.98 | W 0.806
T1: P 3.02 | F 3.38 | M 3.12 | K 2.76 | S 3.13 | A 3.08 | N 2.93 | H 3.05 | W 3.67 | Y 3.48 | G 2.96 | I 3.08 | D 2.95 | L 3.04 | Q 2.98 | V 3.21 | C 2.81 | R 2.81 | E 2.93
A15: N 1.58 | I 2.69 | Y 3.95 | S 2.18 | P 0.28 | L 2.76 | H 2.69 | K 1.45 | M 2.79 | G 1.18 | T 2.04 | R 1.46 | Q 2.08 | D 1.13 | W 3.37 | F 4.24 | V 2.91 | E 2.24
R4: N 2.11 | P 1.25 | I 3.1 | T 2.54 | W 3.49 | Q 2.93 | H 2.77 | Y 3.12 | V 2.99 | E 2.36 | S 2.3 | K 2.9 | D 1.6 | L 3.43 | G 1.85 | M 3.24 | F 3.15 | A 2.65
Q16: M 3.32 | S 2.69 | I 2.97 | C 2.99 | D 0.725 | R 2.63 | N 0.943 | H 2.07 | E 2.45 | W 2.53 | V 3.18 | T 2.27 | F 2.97 | A 3.91 | L 2.89 | K 3.04 | P 0.25 | Y 2.83 | G 2.99
A19: D 1.41 | E 2.28
T5: Y 3.96 | S 2.81 | Q 2.63 | L 3.46 | W 4.03 | C 2.5 | F 3.75 | D 2.04 | K 2.09 | E 2.57 | G 1.73 | N 2.3 | A 2.43 | M 3.42 | P 1.24 | R 2.35 | V 3.37 | H 2.71 | I 3.42
D7: K 2.52 | N 2.75 | G 2.74 | R 2.46 | L 2.87 | S 2.84 | Q 2.54 | V 2.51 | P 2.58 | I 2.46 | Y 3.18 | W 3.19 | A 2.92 | T 2.76 | E 2.78 | F 3.22 | H 2.61 | M 2.82
F6: S 0.282 | K 0.23 | H 0.637 | E 0.25 | N 0.174 | L 1.22 | D 0.02 | W 1.28 | M 1.24 | V 1.65 | G 0.049 | T 0.546 | Y 3.19 | Q 0.251 | R 0.142 | A 0.553 | I 0.565 | P -0.092
E10: P 1.88 | D 2.76 | I 2.58 | L 2.51 | K 2.46 | H 2.5 | R 2.28 | C 3.04 | Y 2.71 | N 2.17 | M 2.59 | F 2.69 | V 2.58 | G 2.21 | S 2.18 | T 2.04 | Q 2.67 | W 2.93 | A 2.86
E11: H 1.61 | K 2.21 | N 1.96 | P 0.769 | V 1.43 | L 2.4 | W 1.28 | R 1.47 | Q 2.54 | I 1.46 | G 2.34 | Y 1.46 | A 2.75 | F 1.47 | D 2.95 | T 1.75 | M 2.47 | S 2.18
T3: E 2.08 | L 3.15 | W 3.06 | N 2.33 | Y 3.11 | R 2.54 | I 3.35 | G 2.17 | F 3.2 | S 2.62 | D 1.93 | V 3.38 | C 3.22 | P 2.73 | A 2.66 | K 2.48 | M 3.03 | H 2.55 | Q 2.46
K14: V 2.94 | H 3.05 | P 0.356 | Y 2.95 | E 3.15 | D 2.9 | C 3.46 | M 3.23 | T 2.9 | G 2.5 | N 3.05 | I 3.07 | S 2.89 | F 3.02 | W 3.02 | R 3.02 | Q 3.23 | A 3.29 | L 3.23
E2: G 2.79 | T 3.11 | D 2.71 | M 2.95 | H 3.05 | V 3.15 | K 2.86 | P 2.48 | R 2.89 | L 2.98 | A 2.84 | F 3.13 | N 2.94 | Q 3.03 | I 3.23 | S 2.95 | W 3.24 | Y 3.19
E18: C 3 | Q 2.65 | A 2.79 | K 2.36 | W 2.63 | F 2.32 | I 2.74 | R 2.46 | P 0.538 | V 2.58 | S 2.38 | T 2.42 | N 2.46 | Y 2.31 | M 2.81 | D 2.87 | L 2.79 | G 1.75 | H 2.55
K17: H 2.98 | L 3.25 | R 3.13 | W 3.18 | Q 3.08 | I 3.22 | Y 3.23 | P 0.527 | D 2.92 | T 2.91 | F 3.13 | E 3.17 | V 3.15 | S 3.02 | M 3.21 | A 3.25 | G 2.67 | N 2.82
E9: W 3.38 | V 2.25 | Q 2.18 | D 1.47 | F 3.42 | Y 3.58 | P 1.92 | K 1.66 | T 0.823 | A 2.01 | L 3.33 | I 2.73 | R 1.49 | M 2.38 | N 1.26 | H 2.28 | G 1.03 | S 1.42
K13: Y 3.29 | C 3.06 | F 3.23 | S 2.45 | A 2.54 | R 3.13 | I 3.37 | D 2.09 | N 2.64 | T 2.75 | Q 2.97 | G 2.02 | H 2.72 | P 0.105 | M 3.18 | L 3.5 | V 3.2 | W 2.95 | E 2.63
S8: Y 1.64 | E 1.66 | F 1.8 | I 1.77 | Q 1.82 | K 2.11 | G 1.56 | R 2.12 | L 2.02 | H 2.12 | P 0.072 | M 1.63 | A 1.68 | V 1.78 | W 1.13 | N 2.79 | D 2.27 | T 3.37
